Common to all, as to details: remark: other sources report otherwise
The target of assay [1] is T1, Fas with the death domain, CFP and YFP fusions (human), P25445.
T1 chain: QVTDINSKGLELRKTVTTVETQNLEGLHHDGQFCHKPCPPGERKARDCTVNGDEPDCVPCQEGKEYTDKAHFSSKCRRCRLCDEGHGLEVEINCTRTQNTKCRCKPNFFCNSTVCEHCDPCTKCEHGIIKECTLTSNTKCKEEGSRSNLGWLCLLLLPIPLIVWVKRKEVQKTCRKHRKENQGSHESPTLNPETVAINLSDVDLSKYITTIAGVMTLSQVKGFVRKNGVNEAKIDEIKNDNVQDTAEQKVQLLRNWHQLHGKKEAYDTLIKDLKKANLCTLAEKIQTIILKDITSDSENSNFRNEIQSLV
As to the kind of experiment: CFP dequenching after YFP photobleaching, fluorescence microscope.

Assay [2] deals with T2, Fas (endogenous, native receptor on T lymphoma cells), P25445.
T2 chain: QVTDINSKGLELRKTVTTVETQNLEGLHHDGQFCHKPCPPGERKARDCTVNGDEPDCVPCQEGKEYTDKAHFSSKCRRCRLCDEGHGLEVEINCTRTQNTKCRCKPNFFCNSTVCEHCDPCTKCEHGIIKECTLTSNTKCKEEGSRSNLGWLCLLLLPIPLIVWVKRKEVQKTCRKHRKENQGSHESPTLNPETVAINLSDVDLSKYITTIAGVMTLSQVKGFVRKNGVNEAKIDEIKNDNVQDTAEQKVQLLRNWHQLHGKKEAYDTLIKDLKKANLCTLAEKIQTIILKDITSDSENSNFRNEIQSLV
As to the kind of experiment: DTSSP crosslinking of H9 lymphoma cells, anti-Fas Western blot of deglycosylated lysates.

In assay [3] the target is T3, p60 TNFR (endogenous), P19438.
T3 chain: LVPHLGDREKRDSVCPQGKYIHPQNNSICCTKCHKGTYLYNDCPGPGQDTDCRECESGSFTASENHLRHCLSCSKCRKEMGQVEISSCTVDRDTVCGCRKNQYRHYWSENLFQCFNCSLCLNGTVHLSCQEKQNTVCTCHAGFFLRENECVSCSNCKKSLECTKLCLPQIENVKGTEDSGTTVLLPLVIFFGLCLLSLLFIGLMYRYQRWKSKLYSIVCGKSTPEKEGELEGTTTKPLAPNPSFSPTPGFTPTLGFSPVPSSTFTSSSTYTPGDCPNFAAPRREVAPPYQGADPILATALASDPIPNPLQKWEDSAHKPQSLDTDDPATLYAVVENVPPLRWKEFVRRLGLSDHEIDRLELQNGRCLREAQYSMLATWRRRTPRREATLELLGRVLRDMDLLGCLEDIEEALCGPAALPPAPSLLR
As to the kind of experiment: DTSSP crosslinking of H9 cells with or without TNFα, non-reducing Western blot. (In general: In western blotting, separated proteins are transferred to a membrane and probed.)

B1: Fas with the death domain, CFP and YFP fusions, P25445 26-335 (receptor, human, UniProt P25445 26-335, looked up, not shown: large carriers)
chain: QVTDINSKGLELRKTVTTVETQNLEGLHHDGQFCHKPCPPGERKARDCTVNGDEPDCVPCQEGKEYTDKAHFSSKCRRCRLCDEGHGLEVEINCTRTQNTKCRCKPNFFCNSTVCEHCDPCTKCEHGIIKECTLTSNTKCKEEGSRSNLGWLCLLLLPIPLIVWVKRKEVQKTCRKHRKENQGSHESPTLNPETVAINLSDVDLSKYITTIAGVMTLSQVKGFVRKNGVNEAKIDEIKNDNVQDTAEQKVQLLRNWHQLHGKKEAYDTLIKDLKKANLCTLAEKIQTIILKDITSDSENSNFRNEIQSLV
The molecule B1 came in with an FRET efficiency in assay [1] of 27%.

B2: Fas (endogenous, native receptor on T lymphoma cells), P25445 26-335 (receptor, UniProt P25445 26-335, looked up)
chain: QVTDINSKGLELRKTVTTVETQNLEGLHHDGQFCHKPCPPGERKARDCTVNGDEPDCVPCQEGKEYTDKAHFSSKCRRCRLCDEGHGLEVEINCTRTQNTKCRCKPNFFCNSTVCEHCDPCTKCEHGIIKECTLTSNTKCKEEGSRSNLGWLCLLLLPIPLIVWVKRKEVQKTCRKHRKENQGSHESPTLNPETVAINLSDVDLSKYITTIAGVMTLSQVKGFVRKNGVNEAKIDEIKNDNVQDTAEQKVQLLRNWHQLHGKKEAYDTLIKDLKKANLCTLAEKIQTIILKDITSDSENSNFRNEIQSLV
Take B2: the percent of chains cross-linked as trimers (densitometry) in assay [2] was determined as 60%.

B3: p60 TNFR (endogenous), P19438 30-455 (receptor, UniProt P19438 30-455, looked up)
chain: LVPHLGDREKRDSVCPQGKYIHPQNNSICCTKCHKGTYLYNDCPGPGQDTDCRECESGSFTASENHLRHCLSCSKCRKEMGQVEISSCTVDRDTVCGCRKNQYRHYWSENLFQCFNCSLCLNGTVHLSCQEKQNTVCTCHAGFFLRENECVSCSNCKKSLECTKLCLPQIENVKGTEDSGTTVLLPLVIFFGLCLLSLLFIGLMYRYQRWKSKLYSIVCGKSTPEKEGELEGTTTKPLAPNPSFSPTPGFTPTLGFSPVPSSTFTSSSTYTPGDCPNFAAPRREVAPPYQGADPILATALASDPIPNPLQKWEDSAHKPQSLDTDDPATLYAVVENVPPLRWKEFVRRLGLSDHEIDRLELQNGRCLREAQYSMLATWRRRTPRREATLELLGRVLRDMDLLGCLEDIEEALCGPAALPPAPSLLR
Turning to B3, the percent of chains cross-linked as apparent trimers and higher order complexes in assay [3] lay within 15 to 20%.
